In article PMC12170172, “Initiation of ERAD by the bifunctional complex of Mnl1/Htm1 mannosidase and protein disulfide isomerase” (Nature Structural & Molecular Biology, 2025):

Tests used:
Conditions in all cases: both partners purified
Mnl1 (C644S)–FLAG = molecular target: T1, Mnl1 (C644S)–FLAG (S. cerevisiae, UniProt P38888 21-796, C644S); experiment: cross-linking; purified complexes of Pdi1 with wild-type or mutant Mnl1 incubated with increasing concentrations of DPS (2,2′-dipyridyldisulfide) to induce disulfides; non-reducing SDS-PAGE, Coomassie blue
T1 construct: Mnl1 (Htm1) of S. cerevisiae with a substituted loop cysteine; source: S. cerevisiae, overexpressed together with Pdi1, purified as a complex (anti-FLAG M2 resin, Superdex 200); not shown: FLAG, C-terminal, kept
T1 sequence (looked up): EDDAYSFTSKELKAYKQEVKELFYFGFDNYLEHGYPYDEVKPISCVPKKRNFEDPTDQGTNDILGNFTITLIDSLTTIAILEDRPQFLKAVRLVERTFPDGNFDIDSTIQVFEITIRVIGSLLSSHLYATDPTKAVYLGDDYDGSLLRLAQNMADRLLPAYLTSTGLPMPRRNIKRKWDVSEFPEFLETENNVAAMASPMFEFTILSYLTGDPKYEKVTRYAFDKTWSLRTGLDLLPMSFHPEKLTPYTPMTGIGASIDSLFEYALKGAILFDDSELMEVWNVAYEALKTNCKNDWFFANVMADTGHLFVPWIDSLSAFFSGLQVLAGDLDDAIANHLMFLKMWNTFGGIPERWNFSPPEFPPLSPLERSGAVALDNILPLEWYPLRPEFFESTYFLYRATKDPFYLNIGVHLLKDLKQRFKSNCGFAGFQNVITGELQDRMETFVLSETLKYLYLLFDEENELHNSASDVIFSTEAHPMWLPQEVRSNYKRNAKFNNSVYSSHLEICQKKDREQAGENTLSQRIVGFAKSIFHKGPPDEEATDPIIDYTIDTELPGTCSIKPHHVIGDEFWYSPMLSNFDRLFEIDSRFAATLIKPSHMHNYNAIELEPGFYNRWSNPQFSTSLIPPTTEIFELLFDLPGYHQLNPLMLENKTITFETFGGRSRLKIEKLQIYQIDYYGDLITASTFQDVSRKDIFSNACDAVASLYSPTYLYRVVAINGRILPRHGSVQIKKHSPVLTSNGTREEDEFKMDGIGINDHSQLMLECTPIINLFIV

Mnl1 mCTD–FLAG = molecular target: T2, Mnl1 mCTD–FLAG (S. cerevisiae, UniProt P38888 21-796, L655N | F770Y | M772K); experiment: cross-linking; competition: RBΔS, RBun or RBsc incubated with Mnl1–Pdi1 complex at the indicated molar ratios (tenfold excess in Fig. 6) in 25 mM HEPES pH 7.4, 150 mM NaCl, 0.1% Nonidet P-40, 2 mM CaCl2, 30 °C 30 min; then DPS 30 °C 30 min, N-ethylmaleimide; SDS-PAGE, Coomassie blue
T2 construct: Mnl1 (Htm1) of S. cerevisiae with three hydrophobic residues of the CTD groove changed to hydrophilic ones; source: S. cerevisiae, overexpressed together with Pdi1, purified as a complex (anti-FLAG M2 resin, Superdex 200); not shown: FLAG, C-terminal, kept
T2 sequence (looked up): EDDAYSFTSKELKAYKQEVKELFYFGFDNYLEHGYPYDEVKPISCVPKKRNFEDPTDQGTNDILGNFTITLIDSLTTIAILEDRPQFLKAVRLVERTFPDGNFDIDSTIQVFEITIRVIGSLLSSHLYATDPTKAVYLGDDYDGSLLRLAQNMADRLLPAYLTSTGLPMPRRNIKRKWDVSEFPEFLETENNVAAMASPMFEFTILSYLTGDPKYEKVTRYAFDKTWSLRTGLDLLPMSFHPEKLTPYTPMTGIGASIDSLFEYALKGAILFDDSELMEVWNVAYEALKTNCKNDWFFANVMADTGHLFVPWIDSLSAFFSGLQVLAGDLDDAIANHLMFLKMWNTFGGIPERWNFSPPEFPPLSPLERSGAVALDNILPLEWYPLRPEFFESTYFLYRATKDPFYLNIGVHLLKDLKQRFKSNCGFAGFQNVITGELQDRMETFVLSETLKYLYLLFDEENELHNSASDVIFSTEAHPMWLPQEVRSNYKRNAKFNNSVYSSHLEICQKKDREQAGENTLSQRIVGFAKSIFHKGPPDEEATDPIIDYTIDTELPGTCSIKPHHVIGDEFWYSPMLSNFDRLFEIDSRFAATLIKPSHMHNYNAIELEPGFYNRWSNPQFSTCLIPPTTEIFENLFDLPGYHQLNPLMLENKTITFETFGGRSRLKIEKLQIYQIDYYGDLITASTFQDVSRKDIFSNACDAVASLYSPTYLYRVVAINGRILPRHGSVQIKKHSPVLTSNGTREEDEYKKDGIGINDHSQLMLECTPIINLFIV

Mnl1–FLAG = molecular target: T3, Mnl1–FLAG (S. cerevisiae, UniProt P38888 21-796); experiment: cryo-EM structure; Mnl1–FLAG–Pdi1 complex at 1 mg/ml, purified from detergent-treated yeast membranes with anti-FLAG beads and by size-exclusion chromatography as a 1:1 complex; 25 mM HEPES pH 7.4, 150 mM NaCl
T3 construct: Mnl1 (Htm1), luminal ER mannosidase of S. cerevisiae; MHD amino acids 29–514, loop 515–650, CTD 651–796; called 'Full-length' against Mnl1ΔC; The end of the FLAG tag is stated for the GAL1 plasmid; also called Htm1; FLAG-tagged Mnl1; not shown: FLAG, C-terminal, kept
T3 sequence (looked up): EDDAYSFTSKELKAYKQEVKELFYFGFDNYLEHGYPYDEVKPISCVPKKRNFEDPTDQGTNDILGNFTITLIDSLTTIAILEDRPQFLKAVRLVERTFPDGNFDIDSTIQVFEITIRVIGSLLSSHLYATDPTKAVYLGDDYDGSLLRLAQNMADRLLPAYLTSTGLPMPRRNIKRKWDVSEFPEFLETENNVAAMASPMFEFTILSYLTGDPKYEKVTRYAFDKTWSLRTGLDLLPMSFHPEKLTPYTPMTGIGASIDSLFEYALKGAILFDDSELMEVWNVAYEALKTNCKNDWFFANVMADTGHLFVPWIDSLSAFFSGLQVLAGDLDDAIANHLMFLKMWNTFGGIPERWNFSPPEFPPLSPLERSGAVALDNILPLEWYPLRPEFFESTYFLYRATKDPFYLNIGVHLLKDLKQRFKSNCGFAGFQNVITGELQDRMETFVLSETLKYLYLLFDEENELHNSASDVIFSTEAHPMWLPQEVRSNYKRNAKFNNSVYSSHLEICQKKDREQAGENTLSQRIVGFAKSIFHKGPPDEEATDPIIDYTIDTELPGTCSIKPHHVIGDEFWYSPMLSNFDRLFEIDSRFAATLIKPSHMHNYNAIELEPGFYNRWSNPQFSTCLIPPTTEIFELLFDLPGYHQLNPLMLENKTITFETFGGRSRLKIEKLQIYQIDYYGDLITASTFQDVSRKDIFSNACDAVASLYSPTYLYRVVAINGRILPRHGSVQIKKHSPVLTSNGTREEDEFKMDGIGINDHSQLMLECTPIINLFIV

binding result (Mnl1 (C644S)–FLAG): binds | binding result (Mnl1 mCTD–FLAG): binds | stoichiometry N (Mnl1–FLAG): 1
B1: Pdi1 (protein disulfide isomerase) (enzyme, S. cerevisiae, UniProt P17967 29-522, looked up)
chain: PEDSAVVKLATDSFNEYIQSHDLVLAEFFAPWCGHCKNMAPEYVKAAETLVEKNITLAQIDCTENQDLCMEHNIPGFPSLKIFKNSDVNNSIDYEGPRTAEAIVQFMIKQSQPAVAVVADLPAYLANETFVTPVIVQSGKIDADFNATFYSMANKHFNDYDFVSAENADDDFKLSIYLPSAMDEPVVYNGKKADIADADVFEKWLQVEALPYFGEIDGSVFAQYVESGLPLGYLFYNDEEELEEYKPLFTELAKKNRGLMNFVSIDARKFGRHAGNLNMKEQFPLFAIHDMTEDLKYGLPQLSEEAFDELSDKIVLESKAIESLVKDFLKGDASPIVKSQEIFENQDSSVFQLVGKNHDEIVNDPKKDVLVLYYAPWCGHCKRLAPTYQELADTYANATSDVLIAKLDHTENDVRGVVIEGYPTIVLYPGGKKSESVVYQGSRSLDSLFDFIKENGHFDVDGKALYEEAQEKAAEEADADAELADEEDAIHDEL
notes: Pdi1, protein disulfide isomerase of S. cerevisiae, untagged; Trx domains a, b, b′ and a′; amino acids 24–500 could be modelled; source: S. cerevisiae, overexpressed together with Mnl1–FLAG (GAL1 promoter), purified as a complex
